Data from paper doi:10.1101/189324.
Like-named read-outs stand apart in the source and are kept apart here.

Tests used:
[1] = target: Insulin (purified, used in vitro); assay: BLI
[2] = target: Insulin (purified, used in vitro)
[3] = target: Insulin (purified, used in vitro); assay: BLI; remark: listed apart in the source

B1: Recombinant His-tagged secretagogin (SCGN) (natural protein)
chain: MDNARRKTPARLDAACFWQIWQRFDKEEKGYIRETELDAFFDHLLAKSGTEDTLMEENVQKVKEQLMTSHNVSKEGRILMKELASMFLSEDENFLLFFRLETPLDNSVEFMQIWRKYDADSSGFISAAELCNFLRDLFLHHKKNISEAELEEYTSTMMKIFDKNKDGRLDLNDLARILALQENFLLQFKMDASSTEERKRDFEKIFAHYDVSKTGALEGPEVDGFVKDMMELVQPSISGVDLDKFREILLRHCDVNKDGKIQKSELALCLGLKINP
Q: Which Kd [1] does the source give for B1 here?
A: 1840 nM

Q: And the ThT fluorescence, heat-induced fibrillation of insulin with apo-SCGN (1:2 ratio) [2]?
A: 50%

Q: And the Kd [3]?
A: 1450 nM
